Test: soluble on expression in E. coli; label from the status in PepcDB or PDB records

Sequence | soluble on expression in E. coli
MAGKKTITINGVEMEASEEQTVLQLLNNSSIEVPQVCYHPSLGPIETCDTCIVSINGELKRSCSAELKDGDVIDTLSPDVKKAQVIGMDKILYNHELYCTVCDYNNGGCEIHNTVKEMKINHQSIPFDHKPYHKDESHPFYRYDPDQCILCGRCVEACQDVQVTETLTIDWERKRPRVIWDNDVPINESSCVSCGHCSTVCPCNAMMEKGMEGEAGYLTGINNETLRPMIEITKGVETGYGSILAISDMESAMRDERIKKTKTVCTYCGVGCSFDVWTKGRDILKVEPQEEAPANGISTCVKGKFGWDFVNSEERLTKPLIREGDHFREAEWEEALLLIASKFTELKEAFGPDSLAFITSSKCTNEESYLMQKLARGVIGTNNVDNCSRYCQSPATAGLFRTVGYGGDSGSITDIAQADLVLIIGSNTSESHPVLSTRIKRAHKLRGQKVIVADIRKHEMAERSDLFVQPRAGSDIVWLNAIAKYLIENGKADERFLRERVNGRDEYVKSLAPYTLEYAEEKTGIDQETLIQMAEMIGQADSVCALWAMGVTQHIGGSDTSTAISNLLLVTGNYGKPGAGSYPLRGHNNVQGASDFGSMPDRLPGYEKVTDEQVRQKYERVWGVPLPKEPGMTNHEMIEKIHSGQLKAMYVKGEEMGLVDSNINHVHAAYEKLDFFVVQDIFLSRTAEFADVVLPASPSLEKEGTFTNTERRIQRLYQVFEPLGESKPDWQIIMEVANKLGAGWLYEHPADIMEEAAKLSPIYAGVTYERLEGYNSLQWPVNADGKDSPLLFTERFPFPDGKAILYPVQWTEPKEFGEEYDIHVNNGRLLEHFHEGNLTYKSKGISEKTPEVFLEISPELAAERGIQDGTLVRLTSPFGNVKVKCLITDRVKGKEVYLPMNDSGEAAINLLTGSHADKDTDTPAYKETSAKMEILKHDGISPLPKINHRNGNPQPQIGVQVHKKWARKDYIFPGDAVKRGM | not soluble
MSLSEALERLIDQGVGREPADIVLKGGRFFDLVTGELVASDIAISGERIVGTCGDYEGREEIDVTGRIVVPGFIDTHLHIESSLVTPHEFDRCVLPLGITTVVCDPHEIANVLGTEGIQYFLDSAMETVMDIRVQLSSCVPATHLETSGADLPVGRLTPFRHHPKVIGLAEFMNFPGVVNKDPVCLAKLDAFQDGHIDGHAPLLRGKELNGYLAAGIRTDHECTSAEEALEKIRKGMHILVREGSVSKDLQALMPILTERLSPYLALCTDDRNPLDIAEQGHLDNMIRTAISAGVEPLAIYRAASISAARAFGLRDRGLVAPGWRADLVIVDSLENCKAELVLSAGRRVTDALFAGRKPVEPVGLDSVKAREVKAADFGLPYNEGETSVLGVLPGKIITEHRRYRLPAEGNRTGVDLDRDIIKVAVIERHGVNGNHANGFVQGFGLKKGAIASTVGHDSHNICVVGVNDDDMALAVNRLGEIKGGFVVVHDGKVTGEIALPVAGLMSLEPYERVRDTLHHLRQAAFALGATLEEPFLQLAFLPLPVIPHLKISDRGLVDVDRFMLIGEGHHHHHH | soluble
MKKSAFIFSDGELKRKDSTVLFESEDSKNYLPIEDISDIYIFGEVTVTKKFLELATQKEILLHFYNYNEYYVGTYYPREHYNSGFMILKQAEHYLDEEKRMAIAKKFIHGSVKNMLAVLKYYNNREKDLDRQITAISDLAEKIDEMDEINKLMAIEGNIREIYYGSFDIIVDDEYFEFGKRTKQPPKNRMNSLISFGNSILYTTVLSEIYKTHLDPRIGYLHSTNHRRFTLNLDVAEIFKPIIVDRVIFTLIGKKMLGEKHFEEKAGGIVLNDKGRKQFVAQMLEKLNATLMYKPLGREVSYRRLIRLELYKLEKHLMGEQEYKPYVASW | soluble
MPNHQPVKKFKIIGGACKGLGLNLPNISSTRPTKAIVRESFFNTLQAEINGAHFIEVFSGSASMGLEALSRGAKSAVFFEQNKSAYKTLLENISLFKNRLKKEMEIQTFLDDAFKLLPTLCLKNGVLNIIYLDPPFETSGFLGIYEKCFQALERLLKRFNPKNLLVVFEHESMHEMPKSLVTLAIIKQKKFGKTTLTYFQLEHHHHHH | soluble
MGSDKIHHHHHHMILVTGANGLVGSFLCNELAGKGYRVKALVREKSDTSLLKAVAGSIELVYGDITDAGSLVDAMEDVMCVVHTAAVISFWNKKNKEMYQTNVVGTRNVVDVALEKGVKKMIHISSIAAIGRKATDTRIDEKNNWEESAVNTAYAVTKHQAELEIFRAVEEGLHAVIINPSVILGPGLKGTSSVRLFEYVQQKGKFYTDGDLNYVDVRDVVESIEYFISHETPAGERYILNGGTVSFKTFFEKIAEMLHTNPPSVKASDWMKQIVWRVEAIKAFITGKEPLITKSTARTATNKFEYSADKIMQLSQRSFRPLQDTIYWTCKQLF | not soluble
MITSTNKEAYPNTLIVILGHDEGRSSFEEKEDVTRVTNDKGETIGFNFFNVDKLIDFDKLPNGPVKLSDDELEALNKKLAEVGFDDKLEYGKPTLVYGYVKTCEKHPDSDHLHVTTIEVGDGEEHQIVCGAPNIAQGQKVVVALPGTLMPNGAQIWPGKLRGVDSYGMICSARELGLPHAPQKRGIMVVPDSFEVGAEFEPTKCDELIASGEITLLEHHHHHH | soluble
MSLKNFVVKDIGIPKYIENMVGKGDFYLLNKRKLNSHKGQNGKVLIIGGSKEYHGAPVFSGLAASKFADIVTVASVSNVIGTVRNYPELMPYELNGEYIGQKNTDELLKLSKNYDCTVLGSGLSLNSSTKEFVNSYLNETNGKVVIDADAIKLIDYGNFEFKNNFIFTPHKKEFEYMKDYVKKYAKNQGFNSTVVLKGSIDIVFDPDNIKMNITGNQGMTAGGTGDILCGIIGAICACNDAFPSACCGTYINGYCGDLLEKEYGYYYNSTDIIKILPKALKELLYEGHHHHHH | soluble
PPFTGDERASIQRACEAGVEKIIVPATEAAHFPRVLALAARFPSLYAALGLHPIVIERHADDDSDKLQQALAQQQNVVAVGEIGLDLYRDDPQFARQERFLDAQLQLAKRYDLPVILHSRRTHDKLAMHLKRQDLPRTGVVHGFAGSLQQAERFVRLGYKIGVGGTITYPRASKTRDVMARLPLDALLLETDAPDMPLKGFQGQPNRPEQAARVFDALCELRPE | not soluble
MRTVAALLFLFTCLESFESSSATPVCTNGFTLINNKCLKLLNTPVNHKAAEISCSSFGATLVTVKNDHDNQAIATIVGSSTPLVWLGLYCFSSNSSQCLWDDESGSARSYNNFSSGFPLVALGQCVYYSTQGALTGKWLSAECESQRMAFVCELPTTFADNCLHNYNGYCYTFSSSPQTFIGAQSTCAQTCGNLASVHSPNENRYITTFAPQDYYYIGAIWKTDYSLRWMDGSAWDYNNIDPIYPNRYNYCLHMSTITTSGSGFWYGDDCSLSRKYVCKREAGVPCTTVPPPVTVRPSSTNPSNCNAGLLMSPGVFTSPNYPQNYFNNENCTYQLSTLGSYRITLKFSNFRTESNYDFVSVYDGPTTSSPSLGRYSGNIGSFYVSSSENNMLVTFTSDAGVVFQGFTARFYSVVHRS | not soluble
MVADNSEKSTKSVANGSLISTVSSKDDLPNAIIVTQVPEDVFDNKQDKANFSSLFTQIEKDIHFDFLRSFRRVRVIFSSPENATAAKLIVQGFSFKGHELKAFFAQRIYMSANSQMLSPPPLEKQFLISPPCSPPVGWEQTKDMPPVVCNFDLMARLASFAIDEKYEVHNGDELTPAIIVHPCETPIDVPSAIEMPRTPRPSSPCEQ | not soluble
MSCMGAAVNIITTDGPAGRAGFTASAVCSVTDTPPTLLVCLNRGASVWPVFNENRTLCVNTLSAGQEPLSNLFGGKTPMEHRFAAARWQTGVTGCPQLEEALVSFDCRISQVVSVGTHDILFCAIEAIHRHTTPYGLVWFDRSYHALMRPAC | not soluble
MAGDPMKKRFSNKVLIIGYGSVSQCTLPLLLDKLDIPLENITLIDFEDKSKALKKYTNQGLTFVREKITPENLDQVLSQNMENEGMIIDLSWNIDANEIVKWCHDHDVLYVNTSVEVWDPAEKFLTQSLLEKSLYLRQMRLQELSRDWKDAPTAVVDHGANPGLITHFVKQGLLDIAARTCEDKKVSPEDEQEIALLAKNRDFARLARKLGIRVIHCSERDTQIASRPKEVNEFVGTWSIEGLREEGTAPVEIAWGTHESKLPPLAHIPPYGPKNVILLPQMGVNAWVRSWIPDEEIVGMAIRHGESYGLSKLLTVWEGEKAVYRPTVHYAYMPSHDTLSSLCELRGRNYELQPRLRIMTNEIVSGEDIMGALLMGHSYNSWWTGSALSIEEARSLAPGQNATTLQVAAGIVAAILWMLENPREGVKTPEDLPHDFVLDIARPYLGKFISTPSDWTPLKNRKIFFKESPAVKHDPDPWQFENFIFVGLEHHHHHH | soluble
MGSDKIHHHHHHLLASGLEYSHHMSPDAMVEDITRLVEIWVTGWAGCRGYETRTEGRFPAALRADTTKEWEYFAHDPSDTEFAELAAKTAEAPARILTILTNDVARYTYLAQQHGLNVTSASQTMMIVDMETRDSEDPWLSDDDLKLTTFKKDGVHHAVVNAGESVAASGRVFVVGHTAVFDKIVTEPAYQRRGLGSFIMKALAAQAFEHDVENGLLLASLDGQKLYSHLGWTTLCHVLMLSSSNEGADLSVG | not soluble
MDALEGESFALSFSSASDAEFDAVVGYLEDIIMDDEFQLLQRNFMDKYYLEFEDTEENKLIYTPIFNEYISLVEKYIEEQLLQRIPEFNMAAFTTTLQHHKDEVAGDIFDMLLTFTDFLAFKEMFLDYRAEKEGRGLDLSSGLVVTSLCKSSSLPASQNNLRHGHHHHHH | not soluble
MSLGQVFYYQPEQVHLSFGESPLEIVVTWSTMTATNESIVEYGIGGLILSATGTETKFVDGGPAKRTQYIHRVVLRDLQPSSRYEYHCGSRWGWSAEFYFHTTPAGTDWSPSLAIFGDMGNENAQSMARLQEDTQRHMYDAILHVGDFAYDMNTDDALVGDQFMNQIQSIAAYTPYMVCAGNHEEKYNFSNYRARFSMPGGTENIMYSFNLGPVHFIGFSTEVYYFMNYGLKPLVKQYEWLRRDLEEANRPENRKLRPWIVTYGHRPMYCSNDNDNDCTHSETLVRVGLPFMHWFGLEDLFYEHGVDVEIWAHEHSYERLFPIYDYKVYNGSYEEPYRNPRAPVHLVTGSAGCKEGREPFINKIPTWSAIHSRDYGYTRMKAINGSHLYFEQISVDKEGAVIDSFTIIKDEGHHHHHH | soluble
MGSDKIHHHHHHVRVPLLDRDHPRYGNDRFWPGMRAELAKLWRERGHAPILNPPRPRARTHKIQESRSMHLEVLRVPPTTADPEMADRPPLVFVHGAFAGAWCWRETFMPWFAARGWDTHALSLRGHGASDGAERLDSTRLADYADDLRRVIDELDRPPVLIGHSMGGMVVQKVLEDTQAAAAVLLASVPPTGLFSGSVLMALRHPLLCMALWRIQTFGPEEASLRMVEAGLFSTPLDAREAERYTALLQNESSRVVLDMTWFDVPRRRCPQELPLLVLGAEDDAFVPPIEVLATAAFHGTTAQLLPDIGHAMMLDRGWEKTASVMEEWLRCSAF | not soluble
MGSDKIHHHHHHMKKRFIYHDEKSNKFWWIDYEGDSLAVNYGKVGSIGKFQTKEFDNEEQCLKEASKLIAAKMKKGYQEDPKFNFMDRYYFDDEEIGLHVKTSHPNFQCHFTDPLYMCCWDEESPFGSDEGADALNVLENSLRKEPDLDCADFPQMLIETMWGMKYIAMDSILEEDVRAQLLVDEMSTIQSNMITYATAFGQIKVMGKISHKLKKMGLNALARHQLTAKILQWGDGQDSPILQKMIDDLTAFPHEN | not soluble
NIDEHSLFVNVGERTNVTGSKAFARLILNGGYAEGLVIARSQVENGAQIIDINMDEAMLDSQKAMVTFLNLLAAEPDISRLPIMLDSSKWSVIEAGLKCVQGKAVINSISLKEGEAEFLHHARLARRYGAAVIVMAFDETGQADTLQRKVEICTRCYHTLIEQADFPPEDIIFDPNIFAIATGIEEHSNYAVDFIEATHVIRQTLPYAKVSGGVSNVSFSFRGNEPIREAIHTAFLYHAVKAGMTMGIVNAGQLGVYSDIPPDLLEHVEDVLLNRRPDATERLVEFAEHFKGQKKEQIE | not soluble
